In experiment [1] the target is T1, human MASP-3 CCP1-CCP2-SP fragment (human).
T1 construct: limits of the assay construct are not restated; also called rMASP-3 (CCP1-CCP2-SP)
T1 chain: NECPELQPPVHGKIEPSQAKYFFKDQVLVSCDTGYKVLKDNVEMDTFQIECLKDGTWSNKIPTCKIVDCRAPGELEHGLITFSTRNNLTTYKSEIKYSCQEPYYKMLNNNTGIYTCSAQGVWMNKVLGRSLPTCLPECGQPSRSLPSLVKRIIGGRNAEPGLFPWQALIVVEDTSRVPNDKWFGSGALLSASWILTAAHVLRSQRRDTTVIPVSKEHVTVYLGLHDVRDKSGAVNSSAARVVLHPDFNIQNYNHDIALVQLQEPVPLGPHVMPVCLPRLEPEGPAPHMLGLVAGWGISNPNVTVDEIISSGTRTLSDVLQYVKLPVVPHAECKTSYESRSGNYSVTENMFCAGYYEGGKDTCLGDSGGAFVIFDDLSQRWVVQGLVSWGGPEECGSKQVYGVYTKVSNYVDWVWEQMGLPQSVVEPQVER
As to the kind of experiment: sandwich ELISA, MASP-3 CCP1-CCP2-SP captured by αM3-259. Here is the method: (§1) The plate was then washed (PBS-T, 0.05%) and the candidate MASP-3 antibodies were added followed by incubation for one hour at room temperature. The plate was washed (PBS-T, 0.05%) and a detection antibody was added (mouse anti-human kappa-HRP, SouthernBiotech #9230-05) for one hour at room temperature. After another wash (PBS-T, 0.05%) the plate was developed (5 minutes) with OPT EIA TMB (BD Biosciences #555214). Absorbance reading at A450 was measured using the Spectramax M5e plate reader.

Experiment [2] addresses T2, recombinant human MASP-2 (CCP1-CCP2-SP fragment) (human, UniProt O00187 298-686, limits assumed).
T2 construct: domain: CCP1-CCP2-SP fragment
As to the kind of experiment: ELISA: recombinant MASP-2 (CCP1-CCP2-SP) coated directly on the plate, A450. Here is the method:
as §1

The target of experiment [3] is T3, recombinant human MASP-1A (S646A, CCP1-CCP2-SP fragment) (human, UniProt P48740 298-699, limits assumed).
T3 chain: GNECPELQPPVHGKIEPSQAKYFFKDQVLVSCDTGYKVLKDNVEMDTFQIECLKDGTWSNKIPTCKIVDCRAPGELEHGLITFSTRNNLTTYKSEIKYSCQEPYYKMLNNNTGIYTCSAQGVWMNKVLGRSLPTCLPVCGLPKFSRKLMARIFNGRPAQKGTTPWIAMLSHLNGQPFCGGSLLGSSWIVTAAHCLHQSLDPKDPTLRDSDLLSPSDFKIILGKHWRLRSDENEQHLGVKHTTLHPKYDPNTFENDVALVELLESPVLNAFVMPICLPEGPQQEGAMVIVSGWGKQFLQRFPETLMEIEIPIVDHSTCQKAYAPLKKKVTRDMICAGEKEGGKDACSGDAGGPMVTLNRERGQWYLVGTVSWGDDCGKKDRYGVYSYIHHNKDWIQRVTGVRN
Briefly: ELISA: recombinant MASP-1A (S646A, CCP1-CCP2-SP) coated directly on the plate, A450. Here is the method:
as §1

Experiment [4] concerns the target T4, human MASP-3 (construct not stated) (human).
T4 construct: also called MASP-3 antigen
T4 chain: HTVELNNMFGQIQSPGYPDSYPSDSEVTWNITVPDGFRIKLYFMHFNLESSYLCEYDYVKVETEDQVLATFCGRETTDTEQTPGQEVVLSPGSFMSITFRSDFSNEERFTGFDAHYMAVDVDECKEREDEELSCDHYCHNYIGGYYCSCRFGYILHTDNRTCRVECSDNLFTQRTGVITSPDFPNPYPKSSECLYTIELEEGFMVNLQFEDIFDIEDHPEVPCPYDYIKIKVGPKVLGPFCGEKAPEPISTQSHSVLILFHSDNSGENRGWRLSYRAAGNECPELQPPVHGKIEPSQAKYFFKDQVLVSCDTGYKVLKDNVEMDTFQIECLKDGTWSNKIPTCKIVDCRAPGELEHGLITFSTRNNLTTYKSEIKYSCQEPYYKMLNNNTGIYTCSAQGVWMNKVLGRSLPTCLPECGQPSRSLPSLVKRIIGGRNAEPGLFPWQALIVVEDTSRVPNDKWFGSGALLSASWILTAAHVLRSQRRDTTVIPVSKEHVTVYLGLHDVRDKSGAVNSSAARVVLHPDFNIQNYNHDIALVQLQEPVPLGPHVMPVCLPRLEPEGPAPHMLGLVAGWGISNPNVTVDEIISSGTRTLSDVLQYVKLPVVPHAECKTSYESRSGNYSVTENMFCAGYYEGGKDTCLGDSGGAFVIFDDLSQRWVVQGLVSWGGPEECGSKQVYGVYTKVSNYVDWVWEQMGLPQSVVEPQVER
Briefly: not described at this place.

Experiment [5] concerns the target T4, human MASP-3 (construct not stated). Briefly: cell-based or functional assay.
Experiment [6] has the same target. As to the kind of experiment: cell-based or functional assay.
The target in experiment [7] is T1, human MASP-3 CCP1-CCP2-SP fragment. As to the kind of experiment: cell-based or functional assay.
Experiment [8] has as its target T5, recombinant full-length mouse MASP-3 (mouse).
T5 construct: Entry is with leader; also called mouse full length MASP-3
T5 chain: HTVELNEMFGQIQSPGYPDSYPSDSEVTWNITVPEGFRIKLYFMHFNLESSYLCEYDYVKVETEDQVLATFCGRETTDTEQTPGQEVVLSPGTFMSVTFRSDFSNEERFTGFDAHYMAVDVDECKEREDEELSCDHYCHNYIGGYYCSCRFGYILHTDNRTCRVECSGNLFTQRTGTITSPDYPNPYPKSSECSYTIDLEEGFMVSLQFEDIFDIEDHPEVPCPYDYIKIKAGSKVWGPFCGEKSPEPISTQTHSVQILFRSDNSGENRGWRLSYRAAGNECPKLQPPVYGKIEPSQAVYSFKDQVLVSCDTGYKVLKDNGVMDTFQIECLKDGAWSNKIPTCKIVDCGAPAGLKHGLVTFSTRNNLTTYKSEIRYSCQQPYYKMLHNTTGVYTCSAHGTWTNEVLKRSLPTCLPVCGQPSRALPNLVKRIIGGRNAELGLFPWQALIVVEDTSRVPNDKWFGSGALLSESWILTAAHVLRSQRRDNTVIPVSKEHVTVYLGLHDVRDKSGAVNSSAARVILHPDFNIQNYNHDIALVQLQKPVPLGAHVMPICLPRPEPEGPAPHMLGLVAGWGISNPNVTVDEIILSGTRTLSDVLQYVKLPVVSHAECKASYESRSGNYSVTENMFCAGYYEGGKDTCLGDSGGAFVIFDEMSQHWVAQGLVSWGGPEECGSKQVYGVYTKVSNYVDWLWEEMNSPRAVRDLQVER
Briefly: sandwich ELISA, full-length mouse MASP-3 captured by αM3-259. Here is the method:
as §1

T2 sequence (O00187 298-686 limits assumed): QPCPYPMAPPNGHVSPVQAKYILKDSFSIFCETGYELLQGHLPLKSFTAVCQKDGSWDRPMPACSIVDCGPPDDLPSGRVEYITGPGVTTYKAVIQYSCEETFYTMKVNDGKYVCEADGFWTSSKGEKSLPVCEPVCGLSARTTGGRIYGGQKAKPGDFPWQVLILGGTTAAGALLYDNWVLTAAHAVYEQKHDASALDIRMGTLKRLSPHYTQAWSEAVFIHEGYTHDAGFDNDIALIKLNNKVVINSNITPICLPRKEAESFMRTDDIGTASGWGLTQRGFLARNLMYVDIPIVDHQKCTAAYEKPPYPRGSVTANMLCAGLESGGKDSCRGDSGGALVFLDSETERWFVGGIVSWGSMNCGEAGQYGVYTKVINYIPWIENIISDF

B1: MASP-3 mAb 2D7 (mouse-human chimeric IgG4) (antibody, V domains shown)
VH: EVQLQQSGPELVKPGASVKVSCKASGYTLTDYYMNWVKQSHGKSLEWIGDVNPNNDGTTYNQKFKGRATLTVDKSSNTASMELRSLTSEDSAVYYCAICPFYYLGKGTHFDYWGQGTSLTVSS
VL: DIQMTQTPASLSASLGDRVTISCRASQDISNFLNWYQQKPNGTVKLLVFYTSRLHSGVPSRFSGSGSGAEHSLTISNLEQEDVATYFCQQGFTLPWTFGGGTKVEIKR
The molecule B1 showed a half-maximal effective concentration (EC50) in experiment [1] of 122 pM. Besides, the binding result in experiment [2] and in experiment [3] was “no binding (tested: about 20 nM (log10 about 1.3))” each time. The molecule also displayed a binding affinity in experiment [4] of no more than 500 pM. Also, the “Inhibition of Factor Bb Deposition on Zymosan (IC50 nM), 10% factor D-depleted human serum with pro-factor D” value in experiment [5] came to 3.5 nM. The “Inhibition of Rabbit Erythrocyte Lysis (IC50 nM), 10% factor D-depleted human serum” value in experiment [6] worked out at 5.4 nM.

B2: MASP-3 mAb 1A10 (mouse-human chimeric IgG4) (antibody, V domains shown)
VH: QVQLKQSGPELVKPGASVKLSCKASGYTFTSNDINWVKQRPGQGLEWIGWIYPRDGTTKYNEKFTDKATLTVDVSSSTAFMELHRLTSEDSAVYFCSSVEDSYWGQGTLVTVSS
VL: DIVMTQSPSSLAVSAGEKVTMSCKSSQSLLISRTRKNYLSWYQQKPGQSPKLLIYWASTRESGVPDRFTGSGSGTDFTLTISSVQAEDLAVYYCKQSYNLYTFGGGTKLEIKR
notes: The light chain of 1A10 was not identified
B2: the half-maximal effective concentration (EC50) in experiment [1] came out at 241 pM; in experiment [8], 150 pM. Besides, the binding result in experiment [2] and in experiment [3] was “no binding (tested: about 20 nM (log10 about 1.3))” throughout. The “inhibition of MASP-3-dependent fluorogenic tripeptide (BOC-V-P-R-AMC) cleavage” value (shortened to “inhibition … (BOC-V-P-R-AMC) cleavage”) in experiment [7] stood at 29.8 nM. Besides, the binding affinity in experiment [4] is no more than 500 pM. The “Inhibition of Rabbit Erythrocyte Lysis (IC50 nM), 10% factor D-depleted human serum” value in experiment [6] worked out at 0.2 nM.

B3: MASP-3 mAb 4B6 (mouse-human chimeric IgG4) (antibody, V domains shown)
VH: QVQLKQSGPELVKPGASVKLSCKASGYTFTSNDINWVKQRPGQGLEWIGWIYPRDGTTKYNEEFTDKATLTVDVSSSTAFMELHSLTSEDSAVYFCSSVEDSYWGQGTLVTVSS
VL: DIVMTQSPSSLAVSAGEKVTMSCKSSQSLLISRTRKNYLSWYQQKPGQSPKLLIYWASTRESGVPDRFTGSGSGTDFTLTISSVQAEDLAVYYCKQSYNLYTFGGGTKLEIKR
Turning to B3, the EC50 in experiment [1] is 211 pM; in experiment [8], 188 pM. The binding result in experiment [2] and in experiment [3] was “no binding (tested: about 20 nM (log10 about 1.3))” each time. Further, the “inhibition … (BOC-V-P-R-AMC) cleavage” value in experiment [7] is 26 nM. In experiment [4], this molecule yielded a binding affinity of no more than 500 pM. The “Inhibition of Factor Bb Deposition on Zymosan (IC50 nM), 10% factor D-depleted human serum with pro-factor D” value in experiment [5] is 0.2 nM. Also, in experiment [6], the “Inhibition of Rabbit Erythrocyte Lysis (IC50 nM), 10% factor D-depleted human serum” value is 0.2 nM.

B4: MASP-3 mAb 1F3 (mouse-human chimeric IgG4) (antibody, V domains shown)
VH: QVQLKQSGPELVKPGASVKLSCKASGYTFTSNDINWVKQRPGQGLEWIGWIYPRDGSIKYNEKFTDKATLTVDVSSSTAYMELHSLTSEDSAVYFCSGVEDSYWGQGTLVTVSS
VL: DIVMTQSPSSLAVSAGERVTMSCKSSQSLLISRTRKNYLSWYQQKPGQSPKLLIYWASTRESGVPDRFTGSGSGTDFTLTISSVQAEDLAVYYCKQSYNLYTFGGGTKLEIKR
For the molecule B4, the EC50 in experiment [1] is 236 pM; in experiment [8] it was 111 pM. For the same molecule, the binding result in experiment [2] and in experiment [3] was “no binding (tested: about 20 nM (log10 about 1.3))” throughout. Further, in experiment [7], the “inhibition … (BOC-V-P-R-AMC) cleavage” value turned out to be 33 nM. The binding affinity in experiment [4] was no more than 500 pM. Further, in experiment [5], the “Inhibition of Factor Bb Deposition on Zymosan (IC50 nM), 10% factor D-depleted human serum with pro-factor D” value was 0.1 nM. Also, the “Inhibition of Rabbit Erythrocyte Lysis (IC50 nM), 10% factor D-depleted human serum” value in experiment [6] came to 0.2 nM.

B5: MASP-3 mAb 2F5 (mouse-human chimeric IgG4) (antibody, V domains shown)
VH: EVQLQQPGAELVKPGASVKMSCKASGYTFTSYWITWVKQRPGQGLEWIGDIYPGSGSTNYNEKFKSKATLTVDTSSSTAYMQLSSLTSEDSAVYYCARRRYYATAWFAYWGQGTLVTVSS
VL: DIVMTQSQKFMSTSVGDRVSITCKASQNVGTAVAWYQQKPGQSPKLLISSASNRYTGVPDRFTGSGSGTDFTLTISNMQSEDVADYFCQQYNSYPLTFGAGTKLELKR
For the molecule B5, the EC50 in experiment [1] is 73 pM; in experiment [8] it was 102 pM. For the same molecule, the binding result in experiment [2] and in experiment [3] was “no binding (tested: about 20 nM (log10 about 1.3))” in each case. The binding affinity in experiment [4] was no more than 500 pM. For the same molecule, in experiment [6], the “Inhibition of Rabbit Erythrocyte Lysis (IC50 nM), 10% factor D-depleted human serum” value worked out at 0.9 nM.

B6: MASP-3 mAb 2F2 (mouse-human chimeric IgG4) (antibody, V domains shown)
VH: QVQLKQSGAELVTPGASVKMSCKASGYTFTTYPIEWMKQNHGKSLEWIGNFHPYNDDTKYNEKFKGKATLTVEKSSNTVYLELSRLTSDDSAVYFCARRVYYSYFWFGYWGHGTLVTVSS
VL: DIVMTQSQKFMSTSVGDRVNVTCKASQNVGTHVAWYQQKPGQSPKALIYSASYRYSGVPDRFTGSGSGTDFTLTISNVQSEDLAEYFCQQYNSYPRALTFGAGTKLELKR
In the case of B6, the EC50 in experiment [1] stood at 57 pM; in experiment [8], 105 pM. Further, the binding result in experiment [2] and in experiment [3] was “no binding (tested: about 20 nM (log10 about 1.3))” throughout. Moreover, in experiment [4], the binding affinity was no more than 500 pM. The “Inhibition of Rabbit Erythrocyte Lysis (IC50 nM), 10% factor D-depleted human serum” value in experiment [6] was 0.8 nM.

The values above are taken from patent publication US20200270125A1 (OMEROS, published 2020).
